Assay results published in patent publication US20140010815A1 (JOSAI UNIVERSITY, published 2014).
No end group written: not given here.

Target: T1, conjugate of a peptide consisting of an amino acid sequence represented by SEQ ID NO: 1 and KLH (also: conjugated to KLH with glutaraldehyde, attachment site not given here)
T1 construct: Synthetic peptide (Fmoc solid phase) chemically conjugated to KLH; used as the immunogen and as the coating antigen in the antibody titer ELISA; also called antigenic substance; not shown: KLH carrier protein (SIGMA), coupled by glutaraldehyde
T1 peptide: SSVLYGGPPSAA
Experiment: antibody titer ELISA, plate coated with the peptide-KLH conjugate, hybridoma culture supernatant, fluorescence read-out
Description: A buffer solution containing the above-mentioned antigenic substance (5 mg) (Baicarbonate buffer: 100 mM NaHCO₃—NaOH, pH 9.2 to 9.5, the concentration of the peptide: 1 μg/mL) was added to a 96 well flat bottom plate in an amount of 50 μL per well, and allowed to stand for coating at room temperature for 2 hours. The plate was washed 3 times with wash buffer (PBST), and then blocking buffer (3% skim milk 1% BSA, PBS) was added in an amount of 200 to 250 μL/well to react at 4° C. for one full day, and then washed 3 times. Then the culture supernatant of hybridoma was added in an amount of 100 μL/well, which was allowed to react at 37° C. for 4 hours or at 4° C. for one full day. After the plate was washed 3 times, biotin-labeled anti-mouse IgG (SIGMA) diluted 10000 times with dilution buffer (10 mM Tris-HCl (pH 8.0), 0.9% (W/V) NaCl, 0.05% (W/V) Tween 20) was added in an amount of 50 μL/well, which was allowed to react at room temperature for 2 hours. […] Then washing was performed 6 times, and fluorescent substrate buffer (Attophos substrate buffer, Roche Diagnostics K.K.) was added in an amount of 50 μL/well, and the plate was shaded to allow fluorescence to develop. Fluorescence intensity was measured in CytoFluorII (PerSeptive Biosystems).

binding result: binds
B1: monoclonal antibody (SSVmAb) of Example 1, produced by Mouse-Mouse hybridoma SSV-C 93-3 (antibody, IgG1, V domains shown)
VH: EIQLQQSGAELVKPGASVKISCKASGYSFTGYNMNWVKQSHGKSLEWIGNINPYYGSTSYNQKFKGKATLTVDKSSSTAYMQLNSLTSEDSAVYYCARSPYYSNYWRYFDYWGQGTTLTVSS
VL: QIVLSQSPAILSASPGEKVTMTCRASSSVSYMHWYQQKPGSSPKPWIYATSNLASGVPARFSGSGSGTSYSLTISRVEAEDAATYYCQQWSSNPWTFGGGTKLEIK
notes: Mouse monoclonal antibody purified from hybridoma culture supernatant; light chain amplified with a mouse kappa constant region primer
